Experimental data from patent publication US20250025549A1.

Assays:
[1] = molecular target: dipeptidyl peptidase IV (DPP4), the MERS-CoV receptor, His-tagged (human) (UniProt P27487)
[2] = molecular target: dipeptidyl peptidase IV (DPP4), the MERS-CoV receptor, His-tagged (human) (UniProt P27487); assay: ELISA, spike coated, His-tagged hDPP4 titrated

Sequence of dipeptidyl peptidase IV (DPP4), the MERS-CoV receptor, His-tagged (human) (P27487 29-766 limits assumed): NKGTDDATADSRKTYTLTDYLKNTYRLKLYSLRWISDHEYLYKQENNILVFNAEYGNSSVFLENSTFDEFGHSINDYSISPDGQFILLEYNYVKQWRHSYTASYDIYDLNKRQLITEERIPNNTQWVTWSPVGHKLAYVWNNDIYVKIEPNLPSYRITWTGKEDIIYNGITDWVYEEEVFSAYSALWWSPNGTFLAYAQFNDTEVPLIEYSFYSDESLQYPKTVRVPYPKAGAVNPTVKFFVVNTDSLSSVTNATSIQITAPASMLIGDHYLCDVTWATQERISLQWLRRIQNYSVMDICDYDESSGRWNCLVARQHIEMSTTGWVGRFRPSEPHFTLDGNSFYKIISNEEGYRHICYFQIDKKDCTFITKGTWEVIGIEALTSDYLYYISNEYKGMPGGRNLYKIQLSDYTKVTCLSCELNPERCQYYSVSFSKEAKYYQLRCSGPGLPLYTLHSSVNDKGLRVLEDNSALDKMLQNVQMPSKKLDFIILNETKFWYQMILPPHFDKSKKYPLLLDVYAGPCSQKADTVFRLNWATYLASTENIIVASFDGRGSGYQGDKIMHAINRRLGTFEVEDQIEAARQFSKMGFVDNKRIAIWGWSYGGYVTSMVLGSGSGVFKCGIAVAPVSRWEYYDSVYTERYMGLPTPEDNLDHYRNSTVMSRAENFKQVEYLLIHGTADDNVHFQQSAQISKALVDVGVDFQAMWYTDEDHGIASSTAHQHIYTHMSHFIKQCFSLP

Substance: wild-type BV2361 protein (SEQ ID NO: 2), native SARS-CoV-2 Spike (S) polypeptide (from UniProt P0DTC2 14-1273) (other; other documents disagree on this pair)
- IC50 [1]: > 5 µg/mL
- EC50 [2]: > 5 µg/mL
